In article PMC7539009, “Mechanism and evolution of the Zn-fingernail required for interaction of VARP with VPS29” (Nature Communications, 2020):

Tests used:
[1] = biological target: long VPS29 (isoform with the N-terminal sequence …) (UniProt Q9UBQ0-2 1-186); assay: SPR; Biacore T200; GST fusion captured on goat anti-GST antibody coupled to a CM5 chip, GST-CLA on the blank flow cell; VPS29 as analyte, typically 40 to 0.3 μM; 20 mM Tris, 200 mM NaCl, 0.1 mM TCEP, 0.5 μM ZnCl2, pH 7.4; 12 °C for the KD of 2–3 µM; equilibrium and kinetic analysis, single site; conditions: both partners purified
[2] = biological target: VPS29 (short isoform, N-terminal sequence MLVL), untagged (UniProt Q9UBQ0-1 1-182); assay: as above; conditions: both partners purified

Binder	Kd [1] [µM]	Kd [2] [µM]
GQQDLMINNPLSQDEGSLWNKFFQD (domain or fragment, TBC1D5 residues 132-156, holds the Asn Pro Leu motif and the short helix upstream of it; also called TBC1D5 (132–156); not shown: GST, N-terminal, kept) [GST-TBC1D5 (residues 132–156)]	~67	> 300
GST-VARP residues 692-746, 4C mutant (all four Cys to Ser) (domain or fragment, non-native Trp residue numbered 747; source: E. coli BL21 (DE3) pLysS, pGEX6P1, purified (GST-Sepharose, S75 Superdex gel filtration); not shown: GST, N-terminal, kept) TEEDLEDAEDTVSAADPEFSHPLSQSPKSAPAQKRLAKVPASGLGVNVTSQDGSSW	–	55
